# Columns and labels:
# [1] = biological target: ComR of Streptococcus mutans UA159 (Streptococcus mutans UA159); test: ITC; XIP 600 μM injected into ComR 20 μM; 20 mM Tris pH 7.5, 100 mM NaCl, 1 mM β-ME with matched DMSO; VP-ITC, 25 °C; one-site model
# [2] = biological target: ComR of Streptococcus mutans UA159 (Streptococcus mutans UA159)
# [3] = biological target: ComR of Streptococcus mutans UA159 (Streptococcus mutans UA159); test: ITC; paratox 240 μM injected into ComR 20 μM; 20 mM Tris pH 7.5, 100 mM NaCl, 1 mM β-ME; VP-ITC, 25 °C; one-site model
substance,measurement,setting,value
XIP (sigX-inducing peptide) of Streptococcus mutans UA159,Kd,[1],3.6 µM
same,stoichiometry N,[1],1.01
paratox (Prx) of Streptococcus pyogenes MGAS315 (from UniProt Q4VUT1 1-60) (natural protein),"PsigX-luxAB reporter in S. mutans with MGAS315 prx in trans, 200 nM XIP, against the empty vector",[2],> 2 fold
same,Kd,[3],0.133 µM
same,stoichiometry N,[3],0.95
"paratox of Streptococcus pyogenes MGAS5005, prophage MGAS5005.3 (prx3) (from UniProt Q4VUT1 1-60) (natural protein)","PsigX-luxAB reporter in S. mutans with MGAS5005 prx3 in trans, 200 nM XIP, against the empty vector",[2],> 2 fold
paratox of Streptococcus pyogenes MGAS8232 (from UniProt Q4VUT1 1-60) (natural protein),"PsigX-luxAB reporter in S. mutans with MGAS8232 prx in trans, 200 nM XIP, against the empty vector",[2],> 2 fold

# From paper PMC6224593
